From article PMC8730730

Molecular target: enzymatically deglycosylated clinical-grade rshACE2 (human) (UniProt Q9BYF1)
Assay: BLI

UniProt Q9BYF1, sequence (Q9BYF1 18-740 limits assumed): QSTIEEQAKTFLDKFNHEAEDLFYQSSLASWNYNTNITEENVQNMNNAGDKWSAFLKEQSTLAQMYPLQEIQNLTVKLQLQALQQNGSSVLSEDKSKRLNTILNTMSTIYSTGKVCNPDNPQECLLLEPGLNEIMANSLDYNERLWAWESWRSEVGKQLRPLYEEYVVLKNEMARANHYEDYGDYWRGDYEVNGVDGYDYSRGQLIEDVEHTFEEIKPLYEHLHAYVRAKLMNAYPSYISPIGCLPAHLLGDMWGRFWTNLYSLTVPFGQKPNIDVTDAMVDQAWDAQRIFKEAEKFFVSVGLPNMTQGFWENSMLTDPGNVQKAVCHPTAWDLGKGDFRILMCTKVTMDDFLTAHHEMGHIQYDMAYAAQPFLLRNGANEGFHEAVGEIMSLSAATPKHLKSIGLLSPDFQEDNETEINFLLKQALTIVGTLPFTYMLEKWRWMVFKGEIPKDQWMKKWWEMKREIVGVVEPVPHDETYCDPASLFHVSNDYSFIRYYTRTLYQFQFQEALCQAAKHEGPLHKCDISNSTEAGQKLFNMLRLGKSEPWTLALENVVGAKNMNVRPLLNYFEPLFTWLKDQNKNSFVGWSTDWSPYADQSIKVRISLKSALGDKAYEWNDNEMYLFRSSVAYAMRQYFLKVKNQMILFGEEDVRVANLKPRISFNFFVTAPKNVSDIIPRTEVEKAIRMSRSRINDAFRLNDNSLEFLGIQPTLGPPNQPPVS

SARS-CoV-2 Spike receptor binding domain (residues R319-F541) (from UniProt P0DTC2 319-541) (domain or fragment)
Kd: 5.1 nM
